Paper PMC4769027
Each block holds one substance with its values, some of them ahead of it.

Columns and labels:
[1] = biological target: GASDALIE Fc (G236A/S239D/A330L/I332E IgG1 Fc), expressed as an Fc fragment (human); assay: SPR
[2] = biological target: SDALIE Fc (S239D/A330L/I332E IgG1 Fc) (human); assay: SPR
[3] = biological target: FcγRIIb ectodomain (human) (UniProt P31994); assay: SPR
[4] = biological target: FcγRIIa H131 variant ectodomain (human) (UniProt P12318); assay: SPR
[5] = biological target: FcγRIIIa F158 variant ectodomain (as used in SPR) (human) (UniProt P08637); assay: SPR
[6] = biological target: FcγRIIa H131 (Homo sapiens) (UniProt P12318); assay: SPR; details: cited from earlier work
FcγRIIb (Homo sapiens) = FcγRIIb (Homo sapiens) (UniProt P31994); assay: SPR; details: cited from earlier work
[7] = biological target: FcγRIIIa F158 (Homo sapiens) (UniProt P08637); assay: SPR; details: cited from earlier work
[8] = biological target: FcγRIIIa V158 (Homo sapiens) (UniProt P08637); assay: SPR; details: cited from earlier work
[9] = biological target: FcγRIIa R131 (Homo sapiens) (UniProt P12318); assay: SPR; details: cited from earlier work
[10] = biological target: FcγRIIIa V158 ECD (Homo sapiens) (UniProt P08637); assay: Competition; details: cited from earlier work
[11] = biological target: FcγRIIIa V158 ECD (Homo sapiens) (UniProt P08637); assay: SPR; details: cited from earlier work
[12] = biological target: FcγRIIa H131 ECD (Homo sapiens) (UniProt P12318); assay: SPR; details: cited from earlier work
[13] = biological target: FcγRIIIa F158 ECD (Homo sapiens) (UniProt P08637); assay: SPR; details: cited from earlier work
[14] = biological target: FcγRIIb ECD (Homo sapiens) (UniProt P31994); assay: SPR; details: cited from earlier work
[15] = biological target: FcγRIIa R131 ECD (Homo sapiens) (UniProt P12318); assay: SPR; details: cited from earlier work

Substance: FcγRIIIa F158 variant ectodomain (as used in SPR) (from UniProt P08637 17-218) (receptor)
fold improved affinity compared with wtFc [1]: 431 fold | fold improved affinity compared with wtFc [2]: 318 fold

Substance: FcγRIIa H131 variant ectodomain (from UniProt P12318 34-211) (receptor)
fold improved affinity compared with wtFc [1]: 17 fold | fold tighter binding than SDALIE Fc [1]: 7 fold | fold improved affinity compared with wtFc [2]: 2 fold

Substance: GASDALIE Fc (G236A/S239D/A330L/I332E IgG1 Fc), expressed as an Fc fragment (domain or fragment)
Kd [3]: 3880 nM | Kd [4]: 1580 nM | Kd [5]: 213 nM

Substance: IgG1 Fc Fc (from UniProt P01857)
Kd [6]: 1380 nM | Kd (FcγRIIb (Homo sapiens)): 2520 nM | Kd [7]: 2950 nM | Kd [8]: 432 nM | Kd [9]: 1550 nM

Substance: wtFc (IgG1) Fc (from UniProt P01857)
Kd [10]: 252 nM | Kd [11]: 432 nM | Kd [12]: 1380 nM | Kd [13]: 2950 nM | Kd [14]: 2520 nM | Kd [15]: 1550 nM

Next, values leading:

fold improved affinity compared with wtFc [1]: 6 fold
Substance: FcγRIIb ectodomain (from UniProt P31994 43-217) (receptor)

Kd [3]: 2190 nM | Kd [4]: 1490 nM | Kd [5]: 201 nM
Substance: SDALIE Fc (S239D/A330L/I332E IgG1 Fc) (domain or fragment)

Kd [5]: 4450 nM
Substance: wild-type IgG1 Fc (from UniProt P01857 108-328) (domain or fragment)
